Test results: patent US20260242495A1 (PROMETHEUS BIOSCIENCES, published 2026)
“And” between values parts separate entries of the source, which are not always exact repeats. Identical values can stand only once.

Biological target: T1, cynomolgus monkey TL1A (cynomolgus monkey, UniProt G7PRK8 72-251)
T1 sequence: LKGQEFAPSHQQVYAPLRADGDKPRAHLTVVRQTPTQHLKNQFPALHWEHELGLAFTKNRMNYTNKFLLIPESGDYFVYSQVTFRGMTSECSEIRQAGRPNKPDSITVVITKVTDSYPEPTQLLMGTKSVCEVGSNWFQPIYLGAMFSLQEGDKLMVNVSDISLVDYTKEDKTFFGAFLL
Assay: cell-based or functional assay

- IC50 of inhibition of IFN-γ release in monkey whole blood stimulated with immune complex, IL-12 and IL-18: 1.54 nM and 289 ng/mL
B1: anti-TL1A antibody A219 (antibody, V domains shown)
VH: QVQLVQSGAEVKKPGASVKVSCKASGFDIQDTYMHWVKQRPGQGLEWMGRIDPASGHTKYDPKFQVRVTITRDTSTSTVYLELSSLRSEDTAVYYCARSGGLPDVWGQGTTVTVSS
VL: EIVLTQSPGTLSLSPGERATLSCRASSSVSYMYWYQQKPGQAPRPLIYATSNLASGIPDRFSGSGSGTDFTLTISRLEPEDFAVYYCQQWEGNPRTFGGGTKLEIK
